± gives the uncertainty stated by the source.
Assay: amyloid nucleation score (Sup35N fusion, yeast selection) (log enrichment); library NNK1; higher = more nucleation; inactive = no reads after selection
In short: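 Yeast lacking psi expressed peptides of 20 random codons fused to Sup35N, received 100 μM copper sulfate for 24 hours, and were then grown for 7 days at 30°C on medium lacking adenine and uracil. Illumina sequencing of input and output plasmid inserts provided the reads. Nucleation scores are DiMSum log enrichments of output over input, centred on the mode of non-aggregating sequences. Any sequence with under 100 input reads was excluded.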

| Substance | amyloid nucleation score |
| --- | --- |
| SLDDPFRENCLLESFSLMLS | -0.552 ± 1.9 |
| SLDYVSQFIQLLRFFKFYMV | inactive |
| SLECLALTFVGYVTGRLMDL | -1.02 ± 1.7 |
| SLEDLWTRVERIRASEPVLG | -0.293 ± 0.92 |
| SLFMSYLCRLVHRLLSRKIG | -0.172 ± 0.28 |
| SLGPFRDVSCYVVAGIQTVN | -1.66 ± 2.7 |
| SLGVDYDTGSVVYVAGCNCR | 0.009 ± 0.46 |
| SLIMIGIFFYFSLSKQPRSV | 0.027 ± 1.7 |
| SLKMMIFQRGFYTSIG | 1.75 ± 0.13 |
| SLLCCVLVFSFCFSPFRSSE | 1.52 ± 0.16 |
| SLLIELSFRTGNSEY | 0.152 ± 0.5 |
| SLLMRIS | -0.434 ± 0.61 |
| SLLSYMFQGDDVKCHGSAVL | 1.01 ± 0.76 |
| SLMDKMPTIVLELVYHAVQI | 0.018 ± 0.49 |
| SLNRWGVFLCEVALRLADGR | 0.542 ± 0.85 |
| SLNSPL | 0.391 ± 0.85 |
| SLSFVVSGMRFAFAGFFMVS | -0.055 ± 0.21 |
| SLSPWWIHANPWWPYMSNQV | inactive |
| SLSTGIAFINLAACVYSKLT | 2.85 ± 0.18 |
| SLVAGVVFVFMYRVPKIGLV | -0.807 ± 1.2 |
| SLWNDFHMVAVYLVTLSSVD | 0.895 ± 0.79 |
| SLWNSCSSE | 4.68 ± 0.064 |

| Substance | amyloid nucleation score |
| --- | --- |
| SLYFFLFRCVCKRLYSGWNV | -0.481 ± 1 |
| SLYVKWSQILLPLVLYVWYY | 0.232 ± 0.45 |
| SMEIYLDFMNVCSKMVNASG | -0.093 ± 0.3 |
| SMFKGTIWRQHSLS | 0.618 ± 0.85 |
| SMGLKPGEVCLNKDFDSH | 0.036 ± 1.2 |
| SMKCRNGILWFQRLVYLLLS | -0.747 ± 0.56 |
| SMLLSRKHCGGVNEKHFM | -0.311 ± 0.35 |
| SMMEAFDPKYAVSWSVESLT | 1.26 ± 0.67 |
| SMRSNWPGYCTRNGFTLSLL | -0.684 ± 0.32 |
| SMSPVSSVTN | 0.07 ± 0.35 |
| SMVKRSSVVYGLSRGSIKER | 1.08 ± 0.69 |
| SNCLDMTVTAW | inactive |
| SNDTLS | 0.265 ± 0.39 |
| SNEVYWQ | 1.25 ± 0.3 |
| SNEYYPSLHYRVSVGKGLGR | -0.154 ± 1.2 |
| SNFSG | 0.446 ± 0.66 |
| SNGHNAILVA | inactive |
| SNIFNMGY | 0.187 ± 0.35 |
| SNKTSKDGCEFQVVQLVQRV | -0.059 ± 0.33 |
| SNLVGEVYCNL | 0.914 ± 0.57 |
| SNMNAFYTLEHVMPAKFEIS | 1.07 ± 0.33 |
| SNQSDLMLLMENMIDYMKSL | 1.32 ± 0.39 |

| Substance | amyloid nucleation score |
| --- | --- |
| SNQTLPWYK | 0.043 ± 0.53 |
| SNSSMWAYRVC | 0.497 ± 0.74 |
| SNVVNGLDTYSQPGKGWCVR | 0.581 ± 0.37 |
| SPMMVNVYATDDVDLPSWLM | -0.293 ± 0.47 |
| SPRYQSVWEFVSFQDCTSRW | 0.118 ± 1.2 |
| SQNVPDCVLKTLRFDVPCCR | 1.14 ± 0.4 |
| SQRSMRRRRVRVIKDARYNW | 0.224 ± 0.48 |
| SRCNHICHNYISMFLINCEL | 5.71 ± 0.061 |
| SRCRGSYTSSNSYWPAGDPM | -0.777 ± 1.7 |
| SRDRKVYLAYVYVYTRNVQT | 0.683 ± 0.34 |
| SRGPRFDCPMLVTVPSTSLE | -1.1 ± 2.4 |
| SRHVLLPISFGTV | 0.377 ± 0.61 |
| SRIAMS | 0.368 ± 1 |
| SRLEHRFLICNPELYVNFFM | 6.799 ± 0.047 |
| SRLMLFQIFDAKQIDVNDM | 5.03 ± 0.071 |
| SRLRLGIRTDLG | 0.218 ± 0.54 |
| SRMWMFFDCIISIINMAEDT | 7.449 ± 0.051 |
| SRPDVLYCDIFHFRHQILSF | -0.173 ± 0.75 |
| SRSGSLKCRGAQGFTCY | 0.564 ± 0.52 |
| SRSLPLHCMRHGVRRTGRMA | 0.668 ± 0.57 |
| SRVSNCISLVMYKAKLCSIR | 0.644 ± 0.5 |
| SRVVSYSL | -0.5 ± 0.41 |

| Substance | amyloid nucleation score |
| --- | --- |
| SRYRA | 5.11 ± 0.076 |
| SRYSNDLSDIMGDDESRSAH | 0.136 ± 0.28 |
| SRYWKFRCTFSTKFESTKRS | 3.95 ± 0.17 |
| SRYYASYFGIG | 0.034 ± 0.97 |
| SSCGFMRNVIITMHKADIDR | inactive |
| SSCVTFSYMKSVFRFLPCWW | 1.96 ± 0.092 |
| SSDSVSLYYLISYTPFGRFN | inactive |
| SSFCRLLNIMYSRWGGLGTY | inactive |
| SSFKWLAASWLQGALHTMRG | -0.348 ± 0.79 |
| SSFLFSFWGAIGSIKSTFFW | -0.054 ± 0.24 |
| SSFRLHR | inactive |
| SSFRLQALPVEFHGVNYHLA | 0.182 ± 0.92 |
| SSFYTRFWVGSHMCFAGMPK | 0.203 ± 1.2 |
| SSGFKSAPFSFLRLFLHISR | -1.47 ± 2.4 |
| SSGYGECAFVT | -0.055 ± 0.33 |
| SSIAAIVM | 0.723 ± 0.41 |
| SSKYTCFSDYKKCVYTLWRL | 0.292 ± 0.6 |
| SSLQPLIFMRSIHLIVW | 0.265 ± 0.75 |
| SSLWTCREVTDIFIHNCAMI | 1.21 ± 0.79 |
| SSNLRKTFMSAMHVSSCMV | 0.396 ± 0.56 |
| SSNRLSSMQG | 1.09 ± 0.38 |

— the supplement of paper PMC12042874
